# According to article PMC3795957 (Nature biotechnology, 2013):
# Where no end group is shown, it is not given here.
# T1: wild-type (WT Asp) peptide GEKKGNYVVTDH (also: biotin (site not given here))
# T1 chain: GEKKGNYVVTDH
# Target: T1, wild-type (WT Asp) peptide GEKKGNYVVTDH
# Experiment: SPR
binder,measurement,value
"humanized version of the 1i8i Fab (Parent) (Fab, V domains shown) VH: EVQLVESGGGLVQPGGSLRLSCVTSGFTFRKFGMSWVRQAPGKGLEWVASISTGGYNTYYSDSVKGRFTISRDNSKNTLYLQMNSLRAEDTAVYYCTRGYSSTSYAMDYWGQGTLVTVSS VL: DIVLTQSPATLSLSPGERATLSCMTSTDIDDDMNWYQQKPGQAPRLLISEGNTLRPGVPARFSGSGSGTDFTLTISSLEPEDFAVYYCLQSFNVPLTFGQGTKVEIK",kon,338000 M⁻¹ s⁻¹
